The record followed here is article PMC4477859.

This test has as its target wild-type CENP-A nucleosome arrays with Myc-H4 (UniProt P49450). Put plainly: pull-down.
Sequence of UniProt P49450 (P49450 whole entry, looked up): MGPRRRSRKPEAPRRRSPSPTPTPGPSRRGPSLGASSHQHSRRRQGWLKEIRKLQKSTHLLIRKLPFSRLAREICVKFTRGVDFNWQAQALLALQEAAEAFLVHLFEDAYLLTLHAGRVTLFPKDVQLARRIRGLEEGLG

Turning to CENP-C (natural protein), the CENP-C to CENP-A nucleosome ratio, low against high saturation arrays stood at 2 fold.
